According to patent US12697371B2, “Method for preventing, treating or delaying myocardial damage using neuregulin and composition” (ZENSUN (SHANGHAI) SCIENCE & TECHNOLOGY, CO., LTD., priority 2019, dated 2026):
Several values for one entry are separate records, joined by “and”; a condition that tells them apart may be missing. Equal values may be shown once. Entries after “also recorded” stand apart in the source; their conditions may differ.

Legend:
[1] = system: rats with acute myocardial infarction caused by left coronary artery ligation; assay: Echocardiography, rat acute myocardial infarction (left coronary artery ligation), 60-day subcutaneous NRG at different doses (Example 1); type: in vivo, Wistar rats; settings: for EF / LVEDd / LVEDs: 3 times a day
Description: 5.1 Establishment of a Rat Model of Heart Failure Caused by Coronary Artery Ligation
The rats were anesthetized with isoflurane through a gaseous anesthesia apparatus. Then, the rats were fixed in a supine position. After chest hair removal, the skin was disinfected with 75% alcohol. After the incision of the left anterior chest skin, the thoracic muscles were bluntly separated, with the 4th and 5th ribs exposed. Hemostatic forceps were used to bluntly cut off the muscle between the 4th and 5th ribs. Both hands were used to squeeze the heart out of the thoracic cavity so that the heart should be fully exposed for observation of lung inflation and heartbeats. The left atrial appendage and pulmonary conus were fully exposed to ligate the left anterior descending coronary artery (LADCA) with surgical suture between them. […] Then, the thoracic muscles and skin were sutured. After surgery, the rats were put back into the cages for feeding and close observations.
Administration began on the day following the animal model establishment of myocardial infarction.
(§1) After being anesthetized with 4% isoflurane, the rats were fixed onto the operating board in the left lateral recumbent position. The head of the rats was fixed in the breathing mask of the gaseous anesthesia machine, with isoflurane used for maintenance of anesthesia. After chest hair removal, the skin was disinfected with 75% alcohol and coated with a coupling agent. An echocardiography probe was used to detect any echo signal from the left ventricle of the rats. The left ventricular end-diastolic diameter and left ventricular end-systolic diameter (D) were measured. The left ventricular end-diastolic volume (EDV) and end-systolic volume (ESV) were calculated. Also, the ejection fraction (EF) value was found, EF=(EDV−ESV)/EDV*100%.

[2] = system: rats with acute myocardial infarction caused by left coronary artery ligation; assay: Echocardiography, rat acute myocardial infarction, long-term subcutaneous NRG followed by withdrawal through dose reduction (Example 4); type: in vivo, Wistar rats
Protocol: Established in the same way as the rat model of heart failure caused by coronary artery ligation in 5.1, Embodiment 1
The rats were randomly divided into groups and medicated upon coronary artery ligation. According to post-ligation survival, the rats were randomly divided into 2 groups by body weight. Subcutaneous injection was given 3 times a day, and the animals were weighed once a day. The animals were medicated by weight. Echocardiography was performed on day 10 after modeling. All the animals underwent echocardiography every 10 days, underwent echocardiography every week after dose reduction, and underwent echocardiography every 2 weeks after complete withdrawal. All the animals were medicated continuously till day 60, and then a three-week dose-reduction withdrawal plan was implemented: The administered dose was reduced to 15 μg/kg, 7.5 μg/kg and 3.75 μg/kg in the first, second and third week, respectively. The drug was completely withdrawn after three-week dose reduction to observe the clinical symptoms.
as §1, with “The” for “Also, the”, “EP=(EDV−ESV)/EDV*100%.” for “EF=(EDV−ESV)/EDV*100%.”
All experimental data were expressed in ±SD. GraphPad Prism6 was used for one-way ANOVA analysis. P<0.05 indicates a significant inter-group difference; P<0.01 indicates an extremely significant inter-group difference.

[3] = DAY 10, 30 μg/kg/Day sc, 3 times a day, continuous
[4] = DAY 30, 30 μg/kg/Day sc, 3 times a day, continuous
[5] = DAY 50, 30 μg/kg/Day sc, 3 times a day, continuous
[6] = DAY 60, 30 μg/kg/Day sc, 3 times a day, continuous
[7] = DAY 81, 30 μg/kg/Day sc × 60 days, then three weeks of dose reduction (15, 7.5, 3.75 μg/kg)
[8] = DAY 88, after complete withdrawal on day 81 (30 μg/kg/Day sc × 60 days + 3-week dose reduction)
[9] = DAY 102, after complete withdrawal on day 81 (30 μg/kg/Day sc × 60 days + 3-week dose reduction)
[10] = DAY 116, after complete withdrawal on day 81 (30 μg/kg/Day sc × 60 days + 3-week dose reduction)
[11] = DAY 143 (ninth week after withdrawal), after complete withdrawal on day 81

B1: NRG: fragment of the NRG-1β2 isomer, 177-237 amino acid fragment containing an EGF-like domain (SEQ ID NO: 1); developed by Zensun (protein, listed as Homo sapiens)
chain: SHLVKCAEKEKTFCVNGGECFMVKDLSNPSRYLCKCPNEFTGDRCQNYVMASFYKAEELYQ
- EF ([1]; DAY 20, 3.75 μg/kg/D sc): 39.7 ± 10.84%
- LVEDd ([1]; DAY 20, 3.75 μg/kg/D sc): 0.937 ± 0.06 cm
- LVEDs ([1]; DAY 20, 3.75 μg/kg/D sc): 0.777 ± 0.08 cm
- EF ([1]; DAY 20, 7.5 μg/kg/D sc): 41.9 ± 15.17%
- LVEDd ([1]; DAY 20, 7.5 μg/kg/D sc): 0.924 ± 0.05 cm
- LVEDs ([1]; DAY 20, 7.5 μg/kg/D sc): 0.756 ± 0.08 cm
- EF ([1]; DAY 20, 15 μg/kg/D sc): 40.6 ± 9.15%
- LVEDd ([1]; DAY 20, 15 μg/kg/D sc): 0.908 ± 0.05 cm
- LVEDs ([1]; DAY 20, 15 μg/kg/D sc): 0.759 ± 0.08 cm
- EF ([1]; DAY 40, 3.75 μg/kg/D sc): 40.4 ± 12.86%
- LVEDd ([1]; DAY 40, 3.75 μg/kg/D sc): 0.982 ± 0.09 cm
- LVEDs ([1]; DAY 40, 3.75 μg/kg/D sc): 0.813 ± 0.13 cm
- EF ([1]; DAY 40, 7.5 μg/kg/D sc): 40.5 ± 13.39%
- LVEDd ([1]; DAY 40, 7.5 μg/kg/D sc): 0.946 ± 0.08 cm
- LVEDs ([1]; DAY 40, 7.5 μg/kg/D sc): 0.782 ± 0.12 cm
- EF ([1]; DAY 40, 15 μg/kg/D sc): 42.2 ± 11.27%
- LVEDd ([1]; DAY 40, 15 μg/kg/D sc): 0.946 ± 0.08 cm
- LVEDs ([1]; DAY 40, 15 μg/kg/D sc): 0.775 ± 0.11 cm
- EF ([1]; DAY 60, 3.75 μg/kg/D sc): 37.0±12.23%
- LVEDd ([1]; DAY 60, 3.75 μg/kg/D sc): 0.994±0.08 cm
- LVEDs ([1]; DAY 60, 3.75 μg/kg/D sc): 0.839±0.12 cm
- EF ([1]; DAY 60, 7.5 μg/kg/D sc): 38.4±12.17%
- LVEDd ([1]; DAY 60, 7.5 μg/kg/D sc): 0.965±0.07 cm
- LVEDs ([1]; DAY 60, 7.5 μg/kg/D sc): 0.808±0.11 cm
- EF ([1]; DAY 60, 15 μg/kg/D sc): 42.9±11.32%
- LVEDd ([1]; DAY 60, 15 μg/kg/D sc): 0.975±0.07 cm
- LVEDs ([1]; DAY 60, 15 μg/kg/D sc): 0.794±0.10 cm
- Cardiac function / EF value compared with the control group ([1]; high-, middle- and low-dose groups (15, 7.5, 3.75 μg/kg/D sc), after 60 days of continuous administration): all improved; also recorded: higher than that of the control group
- LVEDd and LVEDs compared with the excipient group ([1]; high-dose group (15 μg/kg/D sc), 60 days): could be reduced
- LVEDd and LVEDs compared with the control group ([2]; 30 μg/kg/Day sc, 60 consecutive days): significantly reduced
- EF value compared with the control group ([2]; 30 μg/kg/Day sc, after 60 days of continuous administration): increased significantly
- EF [2, 3]: 50.5 ± 4.96 %
- LVEDd [2, 3]: 0.821 ± 0.05 cm
- LVEDs [2, 3]: 0.637 ± 0.06 cm
- EF [2, 4]: 46.8 ± 6.37 %
- LVEDd [2, 4]: 0.912 ± 0.06 cm
- LVEDs [2, 4]: 0.725 ± 0.07 cm
- EF [2, 5]: 44.4 ± 7.85 %
- LVEDd [2, 5]: 0.934 ± 0.07 cm
- LVEDs [2, 5]: 0.754 ± 0.09 cm
- EF [2, 6]: 43.8±8.0% and 43.8 ± 8.04 %
- LVEDd [2, 6]: 0.981±0.08 cm
- LVEDs [2, 6]: 0.794±0.08 cm
- EF [2, 7]: 42.3±11.2%
- LVEDd [2, 7]: 0.981±0.08 cm and 0.981 ± 0.07 cm
- LVEDs [2, 7]: 0.799±0.08 cm
- EF [2, 8]: 39.3±12.7% and 39.3 ± 12.71 %
- LVEDd [2, 8]: 0.994±0.08 cm
- LVEDs [2, 8]: 0.826±0.10 cm
- EF [2, 9]: 36.6 ± 7.69 %
- LVEDd [2, 9]: 1.031 ± 0.07 cm
- LVEDs [2, 9]: 0.872 ± 0.08 cm
- EF [2, 10]: 33.3 ± 5.12 %
- LVEDd [2, 10]: 1.054 ± 0.07 cm
- LVEDs [2, 10]: 0.908 ± 0.08 cm
- EF [2, 11]: 33.4±7.6%
- LVEDd [2, 11]: 1.104±0.08 cm
- LVEDs [2, 11]: 0.950±0.09 cm
- Cardiac function, overall conclusion ([2]; a long time after withdrawal): significant improving effect on the cardiac function
- EF value compared with the control group ([2]; nine weeks after withdrawal): still showed a rising trend
- LVEDd and LVEDs compared with the control group ([2]; nine weeks after withdrawal): there remained a significant difference
